Values belong to the molecule of their own block, whether it stands above or below them.
What was measured:
small cell lung cancer = details: patients, phase II; cited from earlier work
[1] = system: recurrent and refractory triple-negative breast cancer; details: patients; cited from earlier work
Trop2 antigen [2] = target: T1, Trop2 antigen (human, UniProt P09758 27-274, limits assumed); assay: indirect ELISA, Trop2 antigen coated at 0.4 µg/ml
T1 construct: also called human trophoblast cell surface antigen 2; tumor-associated calcium signal transducer 2
T1 sequence (looked up): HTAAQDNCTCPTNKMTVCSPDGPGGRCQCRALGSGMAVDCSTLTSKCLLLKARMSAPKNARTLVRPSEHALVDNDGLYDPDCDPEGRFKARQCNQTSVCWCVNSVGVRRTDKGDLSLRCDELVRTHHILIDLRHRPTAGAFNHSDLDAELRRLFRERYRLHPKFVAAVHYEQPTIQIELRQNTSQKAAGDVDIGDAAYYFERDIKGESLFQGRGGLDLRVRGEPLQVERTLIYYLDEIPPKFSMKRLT
Experimental: (§1) A Trop2 antigen was diluted to three dilutions (0.1 μg/mL, 0.2 μg/mL, and 0.4 μg/mL) and coated onto ELISA plates. […] An antigen-antibody reaction curve was determined using an indirect ELISA. […] The unit of Ka is M⁻¹. In this formula, [Ab] represents the antibody concentration corresponding to A=½Amax when the antigen concentration is [Ag]; [Ab]t represents the antibody concentration corresponding to A=½Amax when the antigen concentration is [Ag]t; [Ag] and [Ag]t represent the antigen concentrations; and n is the dilution factor between [Ag] and [Ag]t. (FIG. 7)

Trop2 antigen [3] = target: T1, Trop2 antigen; assay: indirect ELISA, Trop2 antigen coated at 0.1 µg/ml
Experimental: as §1

Trop2 antigen [4] = target: T1, Trop2 antigen; assay: indirect ELISA, Trop2 antigen coated at 0.2 µg/ml
Experimental: as §1

Trop2 antigen [5] = target: T1, Trop2 antigen; assay: indirect ELISA on plates coated with Trop2 antigen at 0.1, 0.2 and 0.4 µg/mL; Ka calculated from the antibody concentrations at half-maximal binding
Experimental: as §1

Trop2 antigen [6] = target: T1, Trop2 antigen; assay: Biacore SPR; antibody amine-coupled to CM5 chip, Trop2 antigen as analyte
Experimental: Amino of an anti-Trop2 antibody was coupled to a CM5 chip, with pH of 5.0, an antibody concentration of 10 μg/mL, sample injection time of 60 s, and flow rate of 10 μL/min, and a coupling amount of 378.6 RU. […] (FIG. 6)

tumor tissues = type: in vivo, mice
Experimental: BXPC-3, MDA-MB-231, and NIH3T3 cells were inoculated in the axilla of mice at 6×10^4 cells/mouse. When the tumor volume reached […], an anti-Trop2 antibody was labeled using a Dylight 680 antibody kit. The anti-Trop2 antibody was injected via tail vein into mice at 20 mg/kg. In vivo imaging was performed at 30 min, 1 h, 2 h, 3 h, 4 h, 6 h, 8 h, 10 h, 12 h, 14 h, 24 h, 30 h, 36 h, 48 h, 60 h, 72 h, 84 h, 96 h, 108 h, 120 h, 132 h, 144 h, 156 h, 168 h, 192 h, 216 h, 240 h, and 264 h. (FIG. 11)

Trop2 antigen [7] = target: T2, Trop2 antigen (Homo sapiens, UniProt P09758); assay: antibody-antigen affinity constant by ELISA; type: binding; details: indirect ELISA, FIG. 7
T2 sequence (P09758 27-323): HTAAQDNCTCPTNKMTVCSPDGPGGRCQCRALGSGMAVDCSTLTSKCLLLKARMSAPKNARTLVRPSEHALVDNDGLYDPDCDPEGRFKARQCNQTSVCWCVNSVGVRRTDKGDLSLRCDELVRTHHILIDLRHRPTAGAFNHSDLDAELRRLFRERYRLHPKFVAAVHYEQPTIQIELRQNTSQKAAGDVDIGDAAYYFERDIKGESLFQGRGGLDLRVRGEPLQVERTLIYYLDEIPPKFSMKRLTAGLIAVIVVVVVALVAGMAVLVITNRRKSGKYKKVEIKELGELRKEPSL
Experimental: A Trop2 antigen was diluted to three dilutions (0.1 μg/mL, 0.2 μg/mL, and 0.4 μg/mL) and coated onto ELISA plates. An anti-Trop2 monoclonal antibody was diluted to concentrations of (1, 0.2, 0.04, 0.008, 0.0016, 0.00032, 0.000064, and 0.0000128 μg/mL). An antigen-antibody reaction curve was determined using an indirect ELISA. […] The unit of Ka is M^−1. In this formula, [Ab] represents the antibody concentration corresponding to A=½Amax when the antigen concentration is [Ag]; [Ab]t represents the antibody concentration corresponding to A=½Amax when the antigen concentration is [Ag]t; [Ag] and [Ag]t represent the antigen concentrations; and n is the dilution factor between [Ag] and [Ag]t. (FIG. 7)

[8] = system: human lung squamous cell carcinoma tumor tissues; assay: human tumor tissue chip detection; type: binding; details: FIG. 12
Experimental: All tumor tissue chips used in this experiment were purchased from Shanghai Outdo Biotech Co., Ltd. The main experimental steps included: slide baking, dewaxing, antigen retrieval, endogenous peroxidase blocking, primary antibody incubation, secondary antibody incubation, diaminobenzidine (DAB) developing, hematoxylin counterstaining, and slide blocking. (FIG. 12)

Trop2 antigen [9] = target: T2, Trop2 antigen; assay: antibody-antigen affinity analysis by Biacore method; type: binding; details: antibody coupled to CM5 chip, FIG. 6
Experimental: Amino of an anti-Trop2 antibody was coupled to a CM5 chip, with pH of 5.0, an antibody concentration of 10 μg/mL, sample injection time of 60 s, and flow rate of 10 μL/min, and a coupling amount of 378.6 RU. Trop2 antigen at different concentrations (0, 0.814, 1.628, 3.256, 6.512, 13.025, 26.05, and 52.1 μg/mL) was taken for flowing over the chip with a sample injection time of 60 s, flow rate of 30 μL/min, dissociation time of 600 s, and regeneration conditions of glycine-HCl, and pH 1.5 (100 s, 30 μL/min) to obtain Biacore affinity graphs and affinity constant. (FIG. 6)

[10] = system: Trop2-positive cells HCC-827; assay: confocal immunofluorescence, endocytosis of antibody; type: cell-based, human; details: HCC-827, confocal microscopy, FIG. 9
Experimental: HCC-827 cells in logarithmic growth phase were prepared into a single-cell suspension, after cell counting, which was inoculated into a cell slide at 1×10^4 cells/well/200 μL, and then incubated at 37° C. for 24 h. An anti-Trop2 antibody at 10 μg/mL, 200 μL/well, was added. For the binding of antibody to the cell surface, cells were incubated after being added with antibody IMB1636 at 4° C. for 30 min. The cells were collected for washing three times with PBS, fixed with 4% paraformaldehyde (200 μL/well) for 15 min, washed three times with PBST, permeabilized with 0.2% Triton-X100 (200 μL+100 mL PBS) for 10 min, washed three times with PBST, blocked with 5% BSA at 37° C. for 30 min. The cells were added with secondary antibody (goat anti-mouse AF488) at 3 μL+1.5 mL PBST, 200 μL/well, and incubated at 37° C. for 30 min, washed five times with PBST, stained with DAPI for 15 min, washed three times with PBST, and dropwise added with an anti-fluorescence quenching agent for observation under a confocal microscope.
For the case of endocytosis of antibody, cells were added with antibody IMB1636 and incubated at 37° C. for 2 h. […] Other steps were the same as above. Co-localization of antibody IMB1636 with lysosomes was observed. (FIG. 9)

BxPC-3 = assay: binding ability of antibody to tumor cells by immunofluorescence; type: cell-based; details: BxPC-3 highly expressing Trop2, immunofluorescence, FIG. 8
Experimental: NIH3T3, MDA-MB-231, and BXPC-3 cells were cultured on cell slides at 1×10^4 cells/well and incubated at 37° C. for 24 h. The cells after incubation were fixed with 4% paraformaldehyde for 30 min, followed by washing three times with pre-cooled PBS at 4° C., blocking with 1% BSA in PBST solution at 4° C. overnight, and adding with purified anti-Trop2 antibody at a concentration of 10 μg/mL and incubating at 4° C. overnight. An SP2/0 ascites served as a negative control. The cells were washed three times with PBST pre-cooled to 4° C., added with rhodamine-labeled goat anti-mouse IgG secondary antibody diluted 1:200 at room temperature for incubation for 1.5 h in the dark. The cells after incubation were washed three times with PBST, and one drop of 4′,6-diamidino-2-phenylindole (DAPI) (1 mg/mL) was added to each well for incubation for 10 min. Observations and photographs were taken under a fluorescence microscope. (FIG. 8)

[11] = system: tumor cell membrane that highly expresses Trop2 antigen; assay: binding ability of antibody to tumor cells by flow cytometry; type: cell-based; details: FIG. 10
Experimental: BXPC-3, MDA-MB-231, and NIH 3T3 cells were separately collected at 5×10^6 cells/EP tube, washed with 100 μL of PBS containing 2% FBS pre-cooled to 4° C., and resuspended in 100 μL of PBS containing 2% FBS. Anti-Trop2 antibody at concentrations of 3, 1, 0.3, 0.1, 0.03, 0.01, and 0.003 μg/mL was separately added at 100 μL/tube, with SP2/0 ascite as a negative control. The cells were incubated at 4° C. for 1.5 h, washed with PBS containing 2% FBS, and added with 200 μL of fluorescein isothiocyanate (FITC)-labeled goat anti-mouse IgG secondary antibody (diluted 1:200) for incubation at 4° C. for 1 h in the dark. The cells were washed three times with PBS, and detected by flow cytometry. (FIG. 10)

Trop2 = target: T3, Trop2 (Homo sapiens, UniProt P09758); assay: antibody titer detected by indirect ELISA; type: binding; details: FIG. 2
T3 sequence (P09758 27-323): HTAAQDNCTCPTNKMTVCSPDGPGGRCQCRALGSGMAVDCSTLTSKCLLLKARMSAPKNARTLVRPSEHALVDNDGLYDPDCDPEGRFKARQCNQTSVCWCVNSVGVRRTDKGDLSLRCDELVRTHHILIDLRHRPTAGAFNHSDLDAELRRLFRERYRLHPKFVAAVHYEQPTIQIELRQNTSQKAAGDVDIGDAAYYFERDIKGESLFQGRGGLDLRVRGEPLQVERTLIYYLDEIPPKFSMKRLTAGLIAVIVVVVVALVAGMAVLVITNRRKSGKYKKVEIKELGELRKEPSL
From the text: Hybridoma cell lines for detection was continuously cultured before and after cryopreservation. The antibody titer in the cell supernatant was detected by indirect ELISA.

Molecule: IMMU-132
clinical effective rate (small cell lung cancer): 43% | median overall survival time (small cell lung cancer): 9.5 months | median progression-free survival time (small cell lung cancer): 5.2 months | median remission time (small cell lung cancer): 6 months | objective remission rate (small cell lung cancer): 19% | average time from administration to taking effect [1]: 1.9 months | clinical effective rate [1]: 46% | objective remission rate [1]: 30% | overall survival time [1]: 16.6 months | progression-free survival time [1]: 6 months

EC50 (read off the curve) (Trop2 antigen [2]): ~5 ng/mL | EC50 (read off the curve) (Trop2 antigen [3]): ~5 ng/mL | EC50 (read off the curve) (Trop2 antigen [4]): ~5 ng/mL | Ka (Trop2 antigen [5]): 3.9e+10 M⁻¹ | Kd (Trop2 antigen [6]): 0.484 nM | koff (Trop2 antigen [6]): 0.00073 s⁻¹ | kon (Trop2 antigen [6]): 1.51e+06 M⁻¹ s⁻¹
B1: anti-Trop2 monoclonal antibody IMB1636 (antibody, V domains shown)
VH: QVQLQQSGAELVRPGTSVKISCKASGYTFTNYWLGWVKQRPGHGLEWIGNIFPGGGYTNYNEKFKGKAILTADTSSSTAYMQLSSLTSEDSGVYFCAREGVMDYWGQGTTLTVSS
VL: DILLTQSPAILSVSPGERVSFSCRASQNIGTSIHWYQQRTNGFPRLLIKYASESISGIPSRFSGSGSGTDFTLSINSVESEDIADYYCQQSYSWPFTFGSGTKLEIK
notes: also called mouse-derived anti-Trop2 monoclonal antibody; anti-Trop2 antibody

affinity constant Ka (Trop2 antigen [7]): 3.9e+10 M⁻¹ | ka (Trop2 antigen [9]): 1.057e+06 M⁻¹ s⁻¹ | kd (Trop2 antigen [9]): 0.0007297 s⁻¹ | titer of antibody (Trop2): 8000000
B2: antibody: mouse-derived anti-Trop2 monoclonal antibody (IgG1, Kappa) from hybridoma Y1636-1, CGMCC No. 18167; VL SEQ ID NO:1, VH SEQ ID NO:9 (antibody, V domains shown)
VH: MEWSGVFIFLLSVTADVHSQVQLQQSGAELVRPGTSVKISCKASGYTFTNYWLGWVKQRPGHGLEWIGNIFPGGGYTNYNEKFKGKAILTADTSSSTAYMQLSSLTSEDSGVYFCAREGVMDYWGQGTTLTVSS
VL: MVSTPQFLVFLLFWIPASRGDILLTQSPAILSVSPGERVSFSCRASQNIGTSIHWYQQRTNGFPRLLIKYASESISGIPSRFSGSGSGTDFTLSINSVESEDIADYYCQQSYSWPFTFGSGTKLEIK
modifications: mouse IgG1/kappa constant regions, no entry
targeting of tumor tissues in vivo (tumor tissues; mice, in vivo imaging, FIG. 11): highly target tumor tissues | time remaining in the tumor tissue (tumor tissues; mouse, in vivo): over 11 days | binding to human tumor tissue [8]: highly and specifically bind | endocytosis of the antibody [10]: efficiently endocytose | membrane-binding activity with tumor cell membrane (BxPC-3): high membrane-binding activity | affinity activity with tumor cell membrane [11]: high affinity activity

From patent US20250163176A1, “MONOCLONAL ANTIBODY AGAINST TROP2 AND USE THEREOF” (INSTITUTE OF MEDICAL BIOTECHNOLOGY, CHINESE ACADEMY OF …, priority 2022, published 2025)
